Reference: article PMC3395085
Like-named read-outs stand apart in the source and are kept apart here.

What was measured:
Assay in all cases: X-ray crystallography
[1] = target: T1, PFV integrase (IN) (prototype foamy virus, UniProt P14350 752-1143)
[2] = target: T1, PFV integrase (IN); remark: listed apart in the source
[3] = target: T1, PFV integrase (IN); remark: listed apart in the source

B1: unprocessed U5 viral DNA end, 19 bp (N:r) (dsDNA)
DNA 1: TGCGAAATTCCATGACAAT
DNA 2: ATTGTCATGGAATTTCGCA
- binding result [1]: binds

B2: unprocessed U5 viral DNA end, 5'-phosphate on nonreactive strand (dsDNA)
DNA 1: TGCGAAATTCCATGACAAT
DNA 2: ATTGTCATGGAATTTCGCA
modifications: 5'-phosphate on strand 2 (nonreactive)
- binding result [2]: binds

B3: 3'-processed viral DNA end (R:N, 17/19-mer), formed in crystallo (dsDNA)
DNA 1: TGCGAAATTCCATGACA
DNA 2: ATTGTCATGGAATTTCGCA
- binding result [3]: binds
